The target of experiment [1] is YU2gp140 (cleavage-deficient, trimeric HIV-1 Env gp140 with T4 fibritin trimerization motif) (HIV-1 isolate YU2 | bacteriophage T4). Put plainly: SEC. (In gel filtration, larger molecules generally elute earlier.)
Experiment [2] has as its target YU2gp140:gpD fusion protein (HIV-1 isolate YU2 | bacteriophage T4 | bacteriophage lambda). Put plainly: SEC.

The term stoichiometry N denotes the number of molecules, sites or subunits per partner or assembly. For the substance “YU2gp140 (cleavage-deficient, trimeric HIV-1 Env gp140 with T4 fibritin trimerization motif)”, the stoichiometry N in experiment [1] was determined as 3.
The substance YU2gp140:gpD fusion protein yielded a stoichiometry N in experiment [2] of 3.

The values above are taken from article PMC3062207.
